This assay deals with T1, GST-PDZ (Shrm4-PDZ domain, aa 1–91) (human, UniProt Q9ULL8 1-91).
T1 construct: Shrm4 (Shroom4), encoded by KIAA1202, PDZ domain, aa 1-91; in pGEX-4T-1, which should put GST at the N-terminus; source: E. coli BL21, purified using standard procedures
T1 sequence (looked up): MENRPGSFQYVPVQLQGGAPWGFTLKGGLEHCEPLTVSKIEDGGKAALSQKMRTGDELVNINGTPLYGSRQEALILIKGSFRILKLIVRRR
Nature of the assay: pull-down; competition: synthetic Tat-859–870 peptide added to the HEK293 lysate before the pull-down of GABAB1a by purified GST-PDZ; 10 μM or different concentrations. Particulars: both partners purified.

B1: Tat-859–870 peptide (peptide)
peptide: YGRKKRRQRRRITRGEWQSET
notes: stretch of the GABAB1 C-tail named 859–870; also called Tat-peptide; Tat-859–870 (active) peptide; source: synthetic peptide (bought: Primm, Italy, and China Peptide, China)
For the molecule B1, the binding result was “binds”.

(Values after article PMC5343488, “Epilepsy and intellectual disability linked protein Shrm4 interaction with GABABRs shapes inhibitory neurotransmission” (Nature Communications, 2017).)
